Laboratory results published in patent US7648964B2, “Use of lacritin in promoting ocular cell survival” (University of Virginia Patent Foundation, priority 2004, dated 2010).

Columns and labels:
caspase-3 = assay: Caspase-3 activity in human corneal epithelial cells treated with TNF; type: cell-based; settings: FIG. 11
Method: FIG. 11 graphically illustrates the ability of lacritin and fragments of lacritin to inhibit the ability of tumor necrosis factor (TNF) to regulate caspase-3 activity in human corneal epithelial cells. Go6976 is an inhibitor of protein kinase C. The ordinate represents relative fluorescence units. White bars indicate 3 hours and diagonally-hatched bars indicate 6 hours.
Lacritin-induced proliferation and calcium signaling was studied in the human corneal epithelial (HCE) cell line. HCE cells were grown at 37° C. in DMEM F/12 supplemented with 10% FBS and 50 μg/ml gentamicin. Each experiment was done in a dose- and time-dependent manner using TNF-α (5-20 ng/ml) and lacritin (1-10 nM). Cell viability was measured spectrophotometrically at an absorbance of 570 nm using the MTT assay. Caspase-8 activity was detected fluorometrically by measuring cleavage of the fluorogenic substrate IETD-pNA at an excitation wavelength of 405 nm. Lacritin-induced cell proliferation was studied by H3-thymidine incorporation and via fluorescence-based detection of PKC, PLC and cAMP. Calcium signaling was detected by confocal microscopy of Fluo-4 loaded cells.

[1] = system: rat lacrimal acinar cells; assay: Secretion by freshly isolated rat lacrimal acinar cells (peroxidase assay); type: cell-based
Method: (§1) Freshly isolated rat lacrimal acinar cells, and HSG (human salivary gland) ductal and HCE (human corneal epithelial) cell lines were used to study lacritin function. For secretion studies, rat acinar cells were plated serum-free overnight on wells co-coated with 0.05 μM laminin 1 (to ensure adhesion) and 0 to 20 μM lacritin, or alternatively with laminin-1 (0.05 μM) and treated the next day with serum-free medium containing 0 to 162 ng/ml of soluble lacritin for four hours. Unstimulated and stimulated (carbachol 10^−4 M/VIP 10^−8 M) secretions were then collected, assessed (peroxidase assay) and normalized to μg cellular DNA. To study tyrosine phosphorylation, overnight serum-free cultures of both rat lacrimal acinar and HSG cells were washed and treated with 10 ng/ml of soluble lacritin for 0.5, 2.5, 10, and 30 minutes. […] Using an inverted Zeiss 510 LSM for visualization, 50 second baseline images were first recorded. While the laser was running, lacritin was added (final concentration 4 and 40 ng/ml) and the response continually monitored every 786 msec for a minimum of 200 sec.
Lacritin function of three types of epithelial cells was assessed in serum-free cultures of: 1) lacrimal acinar; 2) salivary ductal; and 3) corneal epithelial cells using secretion (acinar), proliferation (ductal), tyrosine phosphorylation (acinar, ductal) and calcium signaling (corneal epithelial) assays. […]

48 kDa band in HSG cells = assay: Tyrosine phosphorylation of 48 kDa band, HSG cells; type: cell-based, human
Method: as §1, with “minutes. Py(20) anti-phosphotyrosine antibody immunoprecipitation of cell lysates was then examined in Western blots of 7% SDS PAGE gels using Py(20) and ECL for detection.” for “minutes.”

[2] = system: human corneal epithelial cells; assay: Calcium signaling in human corneal epithelial cells (Fluo-3AM); type: cell-based; settings: HCE cells
Method: as §1, with “minutes. Py(20) anti-phosphotyrosine antibody immunoprecipitation of cell lysates was then examined in Western blots of 7% SDS PAGE gels using Py(20) and ECL for detection.” for “minutes.”

FAS/APO-1 = assay: Antibody array screen, salivary ductal cells; type: cell-based, human; settings: lacritin 10 ng/ml, 1 minute; tyrosine phosphorylation as gauge
Method: (§2) Lacritin's function in cell survival was first assessed in an antibody array screen. Serum-free cultures of salivary ductal cells were treated either with recombinant lacritin at 10 ng/ml or an equal volume of 1×PBS (dialysis medium for recombinant lacritin) for 1 minute.

bcl-2 = assay: Antibody array screen, salivary ductal cells; type: cell-based, human; settings: lacritin 10 ng/ml, 1 minute; tyrosine phosphorylation as gauge
Method: as §2

HSG cells = assay: FACS analysis of apoptosis (sub G0/G1) of HSG cells in nutrient depleted medium; type: cell-based, human
Method: HSG cells were cultured for different times in alpha-MEM medium, with or without lacritin (0.4 nM), then fixed with ice-old 70% ethanol and stained with propidium iodide at saturating condition, and examined by FACS. FIG. 3A is a bar graph of the resulting data plotting the number of cells entering apoptosis (the sub G0/G1 population) vs. time. After 24 hrs, cells without lacritin show very large DNA fragmentation or apoptosis. FIGS. 3B and 3C are graphic representations of flow cytometry readings showing that significant DNA fragmentation occurs in the cells cultured in the absence of lacritin (a sub G0/G1 population is indicated as a left shoulder of the large peak of FIG. 3B) but not present in FIG. 3C).
Subsequent flow cytometry (FACS) analysis was carried out to monitoring the time course of cell death and survival promotion function of lacritin. […] Lacritin protected cells from death in nutrient depleted medium (alpha MEM) up to 96 hours or longer. Cells cultured in the absence of lacritin undergo apoptosis starting at about 24 hours and over 50% cells are apoptotic after 48 hours of culture.

syndecan-1 = target: T1, syndecan-1 (Homo sapiens, UniProt P18827); assay: Pull down binding assay with lysates of transfected cells
T1 construct: expressed in transfected cells; host or cells: HEK293 (syndecan-1); E. coli ER2566 (lacritin-intein)
T1 sequence (P18827 23-310): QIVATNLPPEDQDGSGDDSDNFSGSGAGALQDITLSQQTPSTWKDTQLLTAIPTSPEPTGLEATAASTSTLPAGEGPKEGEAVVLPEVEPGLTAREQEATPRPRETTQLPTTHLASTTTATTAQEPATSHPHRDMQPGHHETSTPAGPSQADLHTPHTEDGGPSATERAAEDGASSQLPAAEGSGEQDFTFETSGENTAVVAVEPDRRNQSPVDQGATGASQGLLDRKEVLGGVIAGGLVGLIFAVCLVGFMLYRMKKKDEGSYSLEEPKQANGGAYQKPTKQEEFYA
Excerpt: Biotinylated cell surface proteins were applied to lacritin affinity columns. After washing extensively in physiological salt-containing buffer, bound protein was eluted with 1 M NaCl, and identified with avidin-peroxidase using an ECL blot method. In controls, columns lacking lacritin were used. […] 293T cells stably transfected with human syndecan-2 or −4 were kindly provided by Dr. Atsushi Utani (Chiba University). A series of lacritin C-terminal and N-terminal deletion mutants were generated. Pull down binding assays involved incubation of intein-tagged lacritin or intein deletion mutants with lysates of untransfected or transfected cells followed by precipitation and SDS PAGE. Immunolocalization of syndecan-1 in human lacrimal glands was performed using anti-human syndecan-1 antibody (CD138).

Molecule	protection from cell death by TNF (caspase-3 activity) (caspase-3)	stimulated secretory pathways ([1]; activated by agonists carbachol and VIP)	unstimulated secretion ([1]; coated and soluble lacritin, serum-free)	tyrosine phosphorylation of a 48 kDa band (48 kDa band in HSG cells)	rapidity of lacritin-dependent calcium mobilization [2]	calcium signals ([2]; serum-free)	change in FAS/APO-1 levels (FAS/APO-1)	increase in bcl-2 tyrosine phosphorylation (bcl-2)	DNA fragmentation (HSG cells; lacritin 10 ng/ml, alpha MEM)	duration of protection from death (HSG cells; nutrient depleted medium (alpha MEM))	binding to mammalian syndecan-1 (syndecan-1)
Cn1c2ccccc2c2c3c(c4c5ccccc5n(CCC#N)c4c21)CNC3=O [Go 6976]	do not protect	–	–	–	–	–	–	–	–	–	–
lacritin: recombinant human lacritin from E. coli; mature 119 residue fragment (SEQ ID NO:10) of native lacritin SEQ ID NO:4 (protein, listed as Homo sapiens) EDASSDSTGADPAQEAGTSKPNEEISGPAEPASPPETTTTAQETSAAAVQGTAKVTSSRQELNPLKSIVEKSILLTEQALAKAGKGMHGGVPGGKQFIENGSEFAQKLLKKFSLLKPWA	–	no effect	enhanced unstimulated secretion in a dose-dependent manner	promoted the transient tyrosine phosphorylation	20 to 30 s	rapid and sustained calcium waves	−81%	11%	no noticeable DNA fragmentation	≥ 96 h	bound
